Values quoted from earlier work in article PMC2737186.

Biological target: Cys1 (UniProt position 252, VVKNKCLAEGT)

## Mtu RecA intein (form studied by Shingledecker, Jiang and Paulus 2000) (Mycobacterium tuberculosis)
  pKa: 8.2
